The results in this text go back to patent publication US20130129719, “HER2 NUCLEIC ACID APTAMERS” (UNIVERSITY OF IOWA RESEARCH FOUNDATION, published 2013).

Data set [1] addresses T1, glyoxylase (negative control protein) (Homo sapiens, UniProt Q04760 Q04760:2-184).
T1 sequence: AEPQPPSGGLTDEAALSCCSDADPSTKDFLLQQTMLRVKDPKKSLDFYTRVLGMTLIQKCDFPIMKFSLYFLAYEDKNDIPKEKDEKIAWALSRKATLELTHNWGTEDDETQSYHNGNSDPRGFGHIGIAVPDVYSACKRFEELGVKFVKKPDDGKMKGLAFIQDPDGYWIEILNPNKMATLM
In words: FP; specificity control, room temperature. The note with it: tags: His-tag; label: 5'-FAM. As to the method:
(§1) FIG. 3. Binding of HER2-aptamers to recombinant HER2-ECD protein. RNA aptamers labeled with FAM at the 5′ end were incubated with recombinant rat HER2-ECD protein in increasing concentrations up to 1 μM at room temperature for 30 minutes in 100 μL reaction volumes. A non-target protein (glyoxylase) is used as a negative control in these assays (Control protein). The binding reaction is performed in the buffer in which the selection was performed. Fluorescence polarization (FP) values for each RNA concentration are read using an Analyst HT plate reader by LJL Biosystems. FP is given by P=(V−H)/(V+H), where V is the vertical component of polarized light, and H is the horizontal component of polarized light. Values of polarization range from 0 to 500 mP, with 0 mP being no binding of the RNA and 500 mP representing maximal binding. The curve is fit with a one-site binding model using non-linear regression software. This confirms the binding of the HER2 aptamers to […] HER2 using Fluorescence Polarization. […] This experiment was done several times and was reproducible.
(§2) The inventors next verified that several of the internalizing aptamers were binding specifically to HER2 using fluorescence polarization (FP). This was done by measuring binding of the RNAs to recombinant purified rat HER2-ECD (extra cellular domain) (FIG. 3). […] A control protein (human glyoxylase) was used as a negative control for binding in these studies.

In data set [2] the target is HER2 extracellular domain (HER2-ECD) (Rattus norvegicus, UniProt P06494 P06494:23-654). In words: FP; selection buffer, room temperature 30 min, protein up to 1 uM. The following applies: label: 5'-FAM. As to the method: as §1, §2
HER2 extracellular domain (HER2-ECD), sequence (P06494 23-654, one chain of several): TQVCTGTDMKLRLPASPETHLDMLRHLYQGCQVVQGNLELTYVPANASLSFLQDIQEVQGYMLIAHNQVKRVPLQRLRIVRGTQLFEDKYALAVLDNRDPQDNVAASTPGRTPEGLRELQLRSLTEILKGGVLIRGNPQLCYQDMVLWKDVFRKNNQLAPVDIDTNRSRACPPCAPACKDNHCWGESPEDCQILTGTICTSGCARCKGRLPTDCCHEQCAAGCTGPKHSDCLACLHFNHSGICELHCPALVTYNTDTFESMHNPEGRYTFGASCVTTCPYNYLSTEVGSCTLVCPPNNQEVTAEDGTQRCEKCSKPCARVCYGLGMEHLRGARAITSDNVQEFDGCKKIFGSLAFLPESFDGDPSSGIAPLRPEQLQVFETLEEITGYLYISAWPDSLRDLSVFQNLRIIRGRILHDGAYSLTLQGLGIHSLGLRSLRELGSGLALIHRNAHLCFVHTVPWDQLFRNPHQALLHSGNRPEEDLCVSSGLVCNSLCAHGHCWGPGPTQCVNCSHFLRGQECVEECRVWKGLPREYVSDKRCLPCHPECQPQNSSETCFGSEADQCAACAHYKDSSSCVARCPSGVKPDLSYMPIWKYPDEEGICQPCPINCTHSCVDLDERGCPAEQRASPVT

B1: D1 (ssRNA)
RNA: GGGAGGACGAUGCGGAUGUAUGUUGGGAGCCACGCCAGACGACUCGCCCGA
Take B1: the values for the binding result in data set [1] and in data set [2] were “no binding” and “binds”, respectively.

B2: E1 (ssRNA)
RNA: GGGAGGACGAUGCGGUCCUGUCGUCUGUUCGUCCCCAGACGACUCGCCCGA
In the case of B2, the binding result in data set [1] is given as “no binding”; in data set [2] it was “binds”.

B3: B1 (ssRNA)
RNA: GGGAGGACGAUGCGGUCUGUUGUGCUUGAUAUGCCCCAGACGACUCGCCCGA
As to B3, the binding result in data set [1] was “no binding”; in data set [2], “binds”.

B4: A2 (ssRNA)
RNA: GGGAGGACGAUGCGGGACUGUAUGGGGCUCUGUGCAGACGACUCGCCCGA
As for B4, the figures for the binding result in data set [1] and in data set [2] were “no binding” and “binds”, respectively.

B5: C1 (ssRNA)
RNA: GGGAGGACGAUGCGGCUGUCUACCUUCUACUGCCGCAGACGACUCGCCCGA
For B5, the binding result in data set [1] was “no binding”; in data set [2] it was “binds”.
